# Measurements as given in patent US20190338009A1 (ZEALAND PHARMA A S, published 2019).
# Square brackets hold non-standard residues; d marks the D form. Aib = CC(C)(N)C(=O)O
# T1: human GLP-2 receptor (hGLP2-R) (human, UniProt O95838 1-553)
# T1 sequence (looked up): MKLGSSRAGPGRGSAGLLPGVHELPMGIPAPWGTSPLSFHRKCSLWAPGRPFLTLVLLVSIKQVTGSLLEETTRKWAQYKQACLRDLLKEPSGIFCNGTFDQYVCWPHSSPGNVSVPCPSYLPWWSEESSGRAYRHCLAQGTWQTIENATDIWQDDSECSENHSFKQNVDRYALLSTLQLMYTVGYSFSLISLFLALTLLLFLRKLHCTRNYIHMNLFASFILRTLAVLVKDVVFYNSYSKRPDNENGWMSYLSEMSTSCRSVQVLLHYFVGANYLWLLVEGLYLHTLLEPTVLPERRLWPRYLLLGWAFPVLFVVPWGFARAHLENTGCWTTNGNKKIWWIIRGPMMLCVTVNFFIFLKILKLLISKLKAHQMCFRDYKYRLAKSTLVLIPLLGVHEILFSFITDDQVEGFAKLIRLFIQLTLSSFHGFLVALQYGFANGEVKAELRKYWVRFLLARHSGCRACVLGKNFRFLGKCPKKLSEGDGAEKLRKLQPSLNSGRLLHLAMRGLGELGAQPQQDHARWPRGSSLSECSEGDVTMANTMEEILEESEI
# B1: Compound 12 (peptide)
# peptide: H-H[Aib]EGTFTSELATILDEQAARDFIAWLHAHKITD-OH
# SMILES: CC[C@H](C)[C@H](NC(=O)[C@H](Cc1ccccc1)NC(=O)[C@H](CC(=O)O)NC(=O)[C@H](CCCNC(=N)N)NC(=O)[C@H](C)NC(=O)[C@H](C)NC(=O)[C@H](CCC(N)=O)NC(=O)[C@H](CCC(=O)O)NC(=O)[C@H](CC(=O)O)NC(=O)[C@H](CC(C)C)NC(=O)[C@@H](NC(=O)[C@@H](NC(=O)[C@H](C)NC(=O)[C@H](CC(C)C)NC(=O)[C@H](CCC(=O)O)NC(=O)[C@H](CO)NC(=O)[C@@H](NC(=O)[C@H](Cc1ccccc1)NC(=O)[C@@H](NC(=O)CNC(=O)[C@H](CCC(=O)O)NC(=O)C(C)(C)NC(=O)[C@@H](N)Cc1c[nH]cn1)[C@@H](C)O)[C@@H](C)O)[C@@H](C)O)[C@@H](C)CC)C(=O)N[C@@H](C)C(=O)N[C@@H](Cc1c[nH]c2ccccc12)C(=O)N[C@@H](CC(C)C)C(=O)N[C@@H](Cc1c[nH]cn1)C(=O)N[C@@H](C)C(=O)N[C@@H](Cc1c[nH]cn1)C(=O)N[C@@H](CCCCN)C(=O)N[C@H](C(=O)N[C@H](C(=O)N[C@@H](CC(=O)O)C(=O)O)[C@@H](C)O)[C@@H](C)CC
# B2: Compound 11 (peptide)
# peptide: H-H[Aib]EGTFTSELATILDGKAARDFIAWLIAHKITD-OH
# SMILES: CC[C@H](C)[C@H](NC(=O)[C@H](CC(C)C)NC(=O)[C@H](Cc1c[nH]c2ccccc12)NC(=O)[C@H](C)NC(=O)[C@@H](NC(=O)[C@H](Cc1ccccc1)NC(=O)[C@H](CC(=O)O)NC(=O)[C@H](CCCNC(=N)N)NC(=O)[C@H](C)NC(=O)[C@H](C)NC(=O)[C@H](CCCCN)NC(=O)CNC(=O)[C@H](CC(=O)O)NC(=O)[C@H](CC(C)C)NC(=O)[C@@H](NC(=O)[C@@H](NC(=O)[C@H](C)NC(=O)[C@H](CC(C)C)NC(=O)[C@H](CCC(=O)O)NC(=O)[C@H](CO)NC(=O)[C@@H](NC(=O)[C@H](Cc1ccccc1)NC(=O)[C@@H](NC(=O)CNC(=O)[C@H](CCC(=O)O)NC(=O)C(C)(C)NC(=O)[C@@H](N)Cc1c[nH]cn1)[C@@H](C)O)[C@@H](C)O)[C@@H](C)O)[C@@H](C)CC)[C@@H](C)CC)C(=O)N[C@@H](C)C(=O)N[C@@H](Cc1c[nH]cn1)C(=O)N[C@@H](CCCCN)C(=O)N[C@H](C(=O)N[C@H](C(=O)N[C@@H](CC(=O)O)C(=O)O)[C@@H](C)O)[C@@H](C)CC
# B3: Compound 10 (peptide)
# peptide: H-H[Aib]EGTFTSELSTILDEQAARDFIAWLIAHKITD-OH
# SMILES: CC[C@H](C)[C@H](NC(=O)[C@H](CC(C)C)NC(=O)[C@H](Cc1c[nH]c2ccccc12)NC(=O)[C@H](C)NC(=O)[C@@H](NC(=O)[C@H](Cc1ccccc1)NC(=O)[C@H](CC(=O)O)NC(=O)[C@H](CCCNC(=N)N)NC(=O)[C@H](C)NC(=O)[C@H](C)NC(=O)[C@H](CCC(N)=O)NC(=O)[C@H](CCC(=O)O)NC(=O)[C@H](CC(=O)O)NC(=O)[C@H](CC(C)C)NC(=O)[C@@H](NC(=O)[C@@H](NC(=O)[C@H](CO)NC(=O)[C@H](CC(C)C)NC(=O)[C@H](CCC(=O)O)NC(=O)[C@H](CO)NC(=O)[C@@H](NC(=O)[C@H](Cc1ccccc1)NC(=O)[C@@H](NC(=O)CNC(=O)[C@H](CCC(=O)O)NC(=O)C(C)(C)NC(=O)[C@@H](N)Cc1c[nH]cn1)[C@@H](C)O)[C@@H](C)O)[C@@H](C)O)[C@@H](C)CC)[C@@H](C)CC)C(=O)N[C@@H](C)C(=O)N[C@@H](Cc1c[nH]cn1)C(=O)N[C@@H](CCCCN)C(=O)N[C@H](C(=O)N[C@H](C(=O)N[C@@H](CC(=O)O)C(=O)O)[C@@H](C)O)[C@@H](C)CC
# Target: human glucagon-like peptide 1 receptor (GLP-1R) (human, UniProt P43220 24-463)
# Assay: cell-based or functional assay
row,"EC50 GLP-1 (nM); cAMP AlphaScreen, HEK293 cells expressing human GLP-1R",Binder
1,0.055 nM,B1
2,0.011 nM,B2
3,0.005 nM,B3

# Target: T1, human GLP-2 receptor (hGLP2-R)
# Assay: cell-based or functional assay
row,"EC50 GLP-2 (nM); cAMP AlphaScreen, HEK293 cells expressing human GLP-2R",Binder
1,0.076 nM,B1
2,0.085 nM,B2
3,0.05 nM,B3
